# In patent US5458874A, “Method of increasing monocyte chemotaxis with CAP37 and monocyte chemotactic portions thereof” (Emory University, priority 1992, dated 1995):
# B1: CAP37: granule-associated cationic protein (mol. wt. 37,000 daltons) from human PMN, 222 amino acid mature protein (protein)
# chain: IVGGRKARPRQFPFLASIQNQGRHFCGGALIHARFVMTAASCFQSQNPGVSTVVLGAYDLRRRERQSRQTFSISSMSENGYDPQQNLNDLMLLQLDREANLTSSVTILPLPLQNATVEAGTRCQVAGWGSQRSGGRLSRFPRFVNVTVTPEDQCRPNNVCTGVLTRRGGICNGDGGTPLVCEGLAHGVASFSLGPCGRGPDFFTRVALFRDWIDGVLNNPGP
# Key:
# rabbit PMN = test: Rabbit PMN chemotaxis; assay type: cell-based
# Method: (§1) Chemotaxis was measured using the modified Boyden chamber technique (Snyderman et al.). The leading front method (Zigmond et al.) was used to assess migration of monocytes and lymphocytes through a 8 μm filter (Millipore Corporation, Bedford, Mass.). PMN chemotaxis was measured using a 3 μm filter (Millipore). The purified CAP37 protein (Example 1) used in chemotaxis assays were endotoxin-free as determined by the Limulus Amoebocyte Lysate Assay (Whittaker Bioproducts, Inc., Walkersville, Md.). The dilutions of CAP37 and N-formyl-methionyl-leucyl-phenylalanine (FMLP) were made in Geys buffer (Gibco) containing 2% endotoxin-free bovine serum albumin (BSA). Geys buffer containing 2% BSA served as the negative control, and a […] solution of FMLP as the positive control.
# (§2) The chambers were incubated in a humidified atmosphere (6.2% CO2) for 2 hours when testing monocytes and lymphocytes, and for 30 minutes when testing PMNs. The filters were then removed and processed as previously described (Snyderman et al.). The cells were viewed using oil immersion and the distance the cells had migrated into the filter was determined over five different fields on the same slide (Zigmond et al.). Triplicate assays were performed for each experimental point.
# Salmonella LT2 = conditions: (Shafer, 1986); cited from earlier work
# Ps. aeruginosa = conditions: (Shafer, 1986); cited from earlier work
# PMN = PMN chemotaxis, modified Boyden chamber technique; assay type: cell-based, human; conditions: range employed in these experiments
# Method: as §1, §2
# monocytes = test: Checkerboard assay (chemokinesis); assay type: cell-based, human
# Re LPS from Salmonella = test: Neutralization of LPS activity, limulus amebocyte lysate (LAL) assay, Re LPS; assay type: biochemical
# Method: (§3) Further, the neutralization of LPS activity, as assayed by the limulus amebocyte lysate (LAL) assay, by CAP37 was measured. CAP37 was diluted to the desired concentrations (from 6.2 ng/ml to 500 ng/ml) in geys buffered saline pH 7 (GIBCO). To this wild type LPS (RIBI IMMUNOCHEM) or Re LPS from Salmonella (David Morrison, Kansas Medical Center) was added so that the final concentrations were 0.1, 0.5, 1.0 and 2.0 ng/ml LPS. The tubes were incubated at 37° C. for between 30 to 60 minutes and then assayed in the chromogenic LAL assay, using polymyxin E as a control.
# (§4) As discussed in Example 11, peptides can be screened for lipopolysaccharide neutralizing capacity using the LAL assay also. The CAP37 peptide was diluted to the desired concentrations (from 125 ng/ml to 4000 ng/ml) in geys buffered saline pH 7 (GIBCO). To this is added the wild type LPS (RIBI IMMUNOCHEM) or Re LPS from Salmonella (David Morrison, Kansas Medical Center) so that the final concentration is 0.1, 0.5, and 1.0 ng/ml LPS. The tubes were incubated at 37° C. for between 30 to 60 minutes and then assayed in the chromogenic LAL assay.
# lymphocytes = test: Lymphocyte chemotaxis, modified Boyden chamber technique; assay type: cell-based, human; conditions: range employed in these experiments
# Method: as §1, §2
# Salmonella SH7426 = test: Bactericidal assay; assay type: cell-based
# Method: An overnight culture of Salmonella typhimurium (or other microorganism of interest, if desired) is set up by inoculating one colony in 5 ml of LB Broth (LB Broth consists of 10 g BACTO tryptone (DIFCO), 5 g BACFO yeast (DIFCO) and 5 g NaCl made up to 1 L with endotoxin free water; add 15 g of BACTO agar (DIFCO) to this broth to make LB agar (autoclave). The culture is incubated at 37° C. with rotation. 100 μl of this overnight culture is then transferred to 5 ml of fresh LB Broth and incubated at 37° C. with rotation for 2 hours. Four ml of this log phase culture is then transferred to a sterile cuvette and the optical density is read at […]. Dilutions of the microorganism are then made in tryptone saline (5 g BAOTO tryptone (DIFCO) and 5 g NaCl made up to 1 L with endotoxin free water, pH 5.5) to give a final concentration of 5×10^3 organisms/ml (an O.D. reading of 0.25 at 520 mm is equivalent to 1×10^8 organisms/ml). The microorganisms are placed at 4° C. until ready to be used.
# The stock solutions of peptides are stored at -20° C. at concentrations of 1 mg/ml of endotoxin-free water. The peptide is diluted out in tryptone saline to the desired concentration. 100 μl of the peptide is added to each well of the microtitre plate (Corning) and then 100 μl of the bacterial suspension (well vortexed) is added. Each assay point is set up in triplicate. 100 μl of a control, consisting of bacteria and tryptone saline (T=0) in the absence of peptide is plated out on LB agar plates. The microliter plate is then incubated at 37° C. for 1 hour. At the end of the incubation time, 100 μl of each sample is plated out on LB agar plates. The T=60 control (consisting of bacteria and tryptone saline in the absence of peptide) is plated out last. The plates are incubated overnight, and the number of colony forming units (CFU) are determined.
# The % killed is determined as follows: [formula]
# wild type LPS = test: Neutralization of LPS activity, limulus amebocyte lysate (LAL) assay, wild type LPS; assay type: biochemical
# Method: as §3, §4
molecule,measurement,setting,value
B1,chemotactic response of rabbit PMN,rabbit PMN,did not show a chemotactic response
same,% survival with CAP 37,Salmonella LT2,43%
same,% survival with CAP 37,Ps. aeruginosa,36%
same,effect on PMN chemotaxis,PMN,did not have any effect
same,chemokinetic effect on monocytes,monocytes,some chemokinetic effect
same,neutralization of Re LPS activity (LAL assay),Re LPS from Salmonella,significantly neutralized LPS activity
same,effect on lymphocyte chemotaxis,lymphocytes,did not have any effect
same,% survival with CAP 37,Salmonella SH7426,64.3%
same,neutralization of wild type LPS activity (LAL assay),wild type LPS,significantly neutralized LPS activity
